# Measurements: publication doi:10.1101/575795
# Molecular target: CCR5-SNAP labeled with Alexa-488 (CCR5-SNAP-488) (human) (UniProt P51681)
# Test: fluorescence cross-correlation spectroscopy
# Sequence of UniProt P51681 (P51681 whole entry): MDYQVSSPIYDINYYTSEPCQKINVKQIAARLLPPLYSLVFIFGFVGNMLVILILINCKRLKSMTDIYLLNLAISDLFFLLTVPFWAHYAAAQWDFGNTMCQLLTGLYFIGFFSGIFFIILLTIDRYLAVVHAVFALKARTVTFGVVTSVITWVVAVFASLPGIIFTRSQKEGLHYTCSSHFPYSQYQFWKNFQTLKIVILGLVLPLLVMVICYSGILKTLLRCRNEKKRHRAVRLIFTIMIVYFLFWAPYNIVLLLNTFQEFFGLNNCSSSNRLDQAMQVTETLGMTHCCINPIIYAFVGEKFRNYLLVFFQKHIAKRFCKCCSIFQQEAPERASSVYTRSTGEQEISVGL
Ki,Kd,Substance
0.14 nM,,"5P12-RANTES, non-labeled (from UniProt P13501 24-91) (ligand)"
,0.48 nM,Alexa-647-labeled 5P14-RANTES (5P14-647) (from UniProt P13501 24-91) (ligand)
,10.4 nM,Alexa-647-labeled 6P4-RANTES (6P4-647) (from UniProt P13501 24-91) (ligand)

# Further lines, the substance ahead of its results:
Substance,Ki,Kd
"6P4-RANTES, non-labeled (from UniProt P13501 24-91) (ligand)",3.5 nM,
Alexa-647-labeled 5P12-RANTES (5P12-647) (from UniProt P13501 24-91) (ligand),,0.37 nM
Alexa-647-labeled PSC-RANTES (PSC-647) (from UniProt P13501 24-91) (ligand),,6.6 nM
